Data taken from article PMC2730168 (Molecular cell, 2009).

T1: Core RAG1 (384–1008) fused to MBP (MR1) (mouse, UniProt P15919 384-1008)
T1 sequence (looked up): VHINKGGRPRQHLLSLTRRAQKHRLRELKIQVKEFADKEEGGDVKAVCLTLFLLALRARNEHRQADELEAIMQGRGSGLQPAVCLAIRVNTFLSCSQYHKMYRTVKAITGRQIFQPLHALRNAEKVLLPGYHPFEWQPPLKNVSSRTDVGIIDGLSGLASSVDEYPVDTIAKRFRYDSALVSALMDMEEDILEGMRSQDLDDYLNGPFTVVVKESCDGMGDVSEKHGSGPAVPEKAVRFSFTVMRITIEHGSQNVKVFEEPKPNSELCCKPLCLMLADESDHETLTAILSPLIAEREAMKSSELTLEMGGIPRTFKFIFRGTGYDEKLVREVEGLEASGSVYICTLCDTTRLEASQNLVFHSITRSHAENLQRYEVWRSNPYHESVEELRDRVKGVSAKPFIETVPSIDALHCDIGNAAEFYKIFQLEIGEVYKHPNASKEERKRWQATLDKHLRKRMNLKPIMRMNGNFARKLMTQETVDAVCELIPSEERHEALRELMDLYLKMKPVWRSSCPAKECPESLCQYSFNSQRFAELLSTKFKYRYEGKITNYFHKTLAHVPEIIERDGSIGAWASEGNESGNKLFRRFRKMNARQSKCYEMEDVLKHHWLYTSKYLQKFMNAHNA

T2: Core RAG1 (384–1008) fused to MBP (MR1) (mouse), P15919
T2 chain: T1 sequence (looked up)

B1: Core RAG2 fused to MBP with a PreScission protease site (LR2) (domain or fragment, mouse, UniProt P21784 1-387, looked up)
chain: MSLQMVTVGHNIALIQPGFSLMNFDGQVFFFGQKGWPKRSCPTGVFHFDIKQNHLKLKPAIFSKDSCYLPPLRYPATCSYKGSIDSDKHQYIIHGGKTPNNELSDKIYIMSVACKNNKKVTFRCTEKDLVGDVPEPRYGHSIDVVYSRGKSMGVLFGGRSYMPSTQRTTEKWNSVADCLPHVFLIDFEFGCATSYILPELQDGLSFHVSIARNDTVYILGGHSLASNIRPANLYRIRVDLPLGTPAVNCTVLPGGISVSSAILTQTNNDEFVIVGGYQLENQKRMVCSLVSLGDNTIEISEMETPDWTSDIKHSKIWFGSNMGNGTIFLGIPGDNKQAMSEAFYFYTLRCSEEDLSEDQKIVSNSQTSTEDPGDSTPFEDSEEFCFS
B2: Core RAG1 (384–1008) fused to MBP (MR1), P15919 384-1008 (domain or fragment)
chain: T1 sequence (looked up)
B3: HMGB1 (1–163) (domain or fragment, UniProt P09429 1-163, looked up)
chain: MGKGDPKKPRGKMSSYAFFVQTCREEHKKKHPDASVNFSEFSKKCSERWKTMSAKEKGKFEDMAKADKARYEREMKTYIPPKGETKKKFKDPNAPKRPPSAFFLFCSEYRPKIKGEHPGLSIGDVAKKLGEMWNNTAADDKQPYEKKAAKLKEKYEKDIAAYR

Key:
[1] = molecular target: T1, Core RAG1 (384–1008) fused to MBP (MR1); assay: SEC
[2] = molecular target: T2, Core RAG1 (384–1008) fused to MBP (MR1) …; assay: SEC-MALS; conditions: remark: other sources report otherwise

| Binder | stoichiometry N [1] | stoichiometry N [2] |
| --- | --- | --- |
| B1 | 1 RAG1:RAG2 |  |
| B2 |  | 2 |
| B3 | ~0.5 per RAG1 |  |
